Source: PMC10201443, “Site-directed biochemical analyses reveal that the switchable C-terminus of Rpc31 contributes to RNA polymerase III transcription initiation” (Nucleic Acids Research, 2022)
Changes are numbered by the printed parent chain. Numbers in names are those of the source.

B1: Rpc31(121-251)-Flag_ΔG141-I150 (protein)
chain: SIDDHPYNLNLFPNELYNVMSKFNNADDVFTGTGLQDENIGLSMLAKLKELAEDVDDASTGDGAAKGSKTGEGEDDDLADDDFEEDEDEEDDDDYNAEKYFNNGDDDDYGDEEDPNEEAAF
B2: Rpc31(aa 121–251)_Flag (domain or fragment, S. cerevisiae, UniProt P17890 121-251, looked up)
chain: SIDDHPYNLNLFPNELYNVMGINKKKLLAISKFNNADDVFTGTGLQDENIGLSMLAKLKELAEDVDDASTGDGAAKGSKTGEGEDDDLADDDFEEDEDEEDDDDYNAEKYFNNGDDDDYGDEEDPNEEAAF
notes: Rpc31 of S. cerevisiae, C-terminal aa 121-251; also called Rpc31 C-terminal Ser121-Phe251 peptide; Rpc31 (aa 121–251) peptide; source: E. coli BL21 (DE3) RIL, purified (Ni-Sepharose, SUMO tag removed with Ulp1, second Ni-Sepharose passage, Source15Q); not shown: FLAG, C-terminal, kept
B3: Rpc31(aa 121–251)_Flag_E183K (domain or fragment, S. cerevisiae, UniProt P17890 121-251, looked up)
chain: B2 chain with E63K
notes: Rpc31 of S. cerevisiae, C-terminal aa 121-251 with E183K; the methods describe only the wild-type construct; also called Rpc31 peptide with a Glu183Lys (E183K) point mutation; source: E. coli, recombinantly expressed and purified; not shown: FLAG, C-terminal, kept
B4: Rpc31(121-251)-Flag_ΔL165-V185 (protein)
chain: SIDDHPYNLNLFPNELYNVMGINKKKLLAISKFNNADDVFTGTGDDASTGDGAAKGSKTGEGEDDDLADDDFEEDEDEEDDDDYNAEKYFNNGDDDDYGDEEDPNEEAAF
B5: Full-length Rpc34 protein with an N-terminal V5 epitope tag, Alexa 647-labeled (natural protein)
chain: MSGMIENGLQLSDNAKTLHSQMMSKGIGALFTQQELQKQMGIGSLTDLMSIVQELLDKNLIKLVKQNDELKFQGVLESEAQKKATMSAEEALVYSYIEASGREGIWSKTIKARTNLHQHVVLKCLKSLESQRYVKSVKSVKFPTRKIYMLYSLQPSVDITGGPWFTDGELDIEFINSLLTIVWRFISENTFPNGFKNFENGPKKNVFYAPNVKNYSTTQEILEFITAAQVANVELTPSNIRSLCEVLVYDDKLEKVTHDCYRVTLESILQMNQGEGEPEAGNKALEDEEEFSIFNYFKMFPASKHDKEVVYFDEWTI
modifications: Alexa Fluor 647 NHS Ester label (labeling efficiency ~0.8)

Tests used:
[1] = biological target: B5; test: MST
[2] = biological target: T1, Full-length Rpc34 protein with an N-terminal V5 epitope tag, Alexa 647-labeled (S. cerevisiae, UniProt P32910 1-317, Alexa Fluor 647 NHS Ester label (labeling efficiency ~0.8)); test: MST; Alexa647-labeled Rpc34 constant at 5 nM, unlabeled Rpc31 peptides titrated (WT 1.16 μM to 0.000035 μM); 5 mM sodium phosphate pH 8.0, 0.05% Tween 20; 25°C; MST-on time 5 s; three independent measurements; conditions: both partners purified
T1 construct: Rpc34 of S. cerevisiae, full-length protein; also called Alexa647-labeled Rpc34; fluorescently-labeled Rpc34 protein; source: E. coli BL21 (DE3) RIL, purified (Ni-Sepharose, SUMO tag removed with Ulp1, second Ni-Sepharose passage)
T1 sequence (looked up): B5 chain

[3] = biological target: T2, Rpc31(aa 121–251)_Flag_ΔS151-G164 (S. cerevisiae, UniProt P17890 121-251, ΔS151-G164); test: MST
T2 sequence: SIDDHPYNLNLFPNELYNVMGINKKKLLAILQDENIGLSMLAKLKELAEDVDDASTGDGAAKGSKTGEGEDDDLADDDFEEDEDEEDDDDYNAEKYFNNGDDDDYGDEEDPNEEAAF

| Binder | Kd [1] [µM] | Kd [2] [µM] | other results |
| --- | --- | --- | --- |
| B1 | 4.4 |  |  |
| B2 |  | 0.883 ± 0.339 |  |
| B3 |  | 8.5 ± 5.6 |  |
| B4 | 1.2 |  |  |
| B5 |  |  | Kd [3]: 6.1 µM |
